This is an account of results in patent publication US11046988B2, “Process for the modification of a glycoprotein using a β-(1,4)-N-acetylgalactosaminyl transferase or a mutant thereof” (Synaffix B.V., priority 2014, dated 2021).

Data set [1] is described as follows: Coupled glycosyltransferase assay (R&D Systems Glycosyltransferase Activity Kit, malachite green, 620 nm): transfer of F2-GalNAz to GlcNAc. The conditions noted are these: for Data from the determination of the specific activity: GlcNAc 20 mM, UDP-F2-GalNAz 500 μM, 20 min, room temperature, plate read at 620 nm; for specific activity: UDP-F2-GalNAz 500 μM to GlcNAc 20 mM, 5 mM MgCl2 and 5 mM MnCl2, pH 7.5, linear regression; for transferase activity compared with GalT(Y289L): transfer of F2-GalNAz from UDP-F2-GalNAz (18) to GlcNAc, FIG. 7 / FIG. 8. Set-up: Data from the determination of the specific activity: unit not given here. The data set is classed as biochemical. From the text:
In brief, the glycosyltransferase kit determines the activity of a particular glycosyltransferase by means of a coupled assay that detects the release of liberated UDP upon transfer of the donor sugar (from the sugar-UDP nucleotide) to an acceptor sugar. In more detail, the UDP that is liberated upon transfer of sugar is hydrolyzed by a particular enzyme (CD39L3/rectonucleoside triphosphate diphosphohydrolase-3, also known as NTPDase-3) thereby generating UMP and one equivalent of phosphate (Pi). The latter phosphate in turn is detected by malachite green, which is also added to the mixture. A green color develops in proportion to the amount of inorganic phosphate released and the absorbance of the color at 620 nm is measured as a direct measure of the activity of the glycosyltransferase. In the present case, transfer of F2-GalNAz from the UDP-substrate to GlcNAc on the protein is accompanied by release of UDP, which is hydrolyzed by CD39L3 and the generated phosphate. Preferably, the derived or wild type β-(1,4)-GalNAcT enzyme used in the process according to the invention has at least 30%, 33%, 50%, 75%, 100%, 150%, 200%, or more preferably at least 300% of the UDP-F2-GalNAz transfer activity as compared to the UDP-F2-GalNAz transfer activity of the β-(1,4)-galactosyltransferase mutant enzyme Bos taurus GalT-Y289L (SEQ ID NO: 1), wherein the transfer activity is assessed using the R&D Systems Glycosyltransferase Activity Kit and applying the conditions as indicated in detail in Example 18 and using equal amounts of the enzyme to be tested and β-(1,4)-galactosyltransferase mutant enzyme Bos taurus GalT-Y289L (SEQ ID NO: 1).
Specific activity of enzymes was determined by a coupled glycosyltransferase procedure as described by Wu et al. in Glycobiology 2010, 21, 723-733, incorporated by reference, and commercially available as a kit from R&D system.
In short, a glycosyltransferase reaction was carried out in 50 μL of reaction buffer (25 mM Tris, 150 mM NaCl, 5 mM MgCl2 and 5 mM MnCl2, pH 7.5) in a 96-well plate at room temperature for 20 min. To determine the kinetic parameters of a glycosyltransferase, multiple reactions with varying amounts of the enzyme were carried out simultaneously (0.01, 0.02, 0.04, 0.06, 0.08, 0.10 and 0.12 μg of enzyme) in the presence of fixed amounts of all other components (GlcNAc: 20 mM, UDP-F2-GalNAz: 500 μM), including the coupling phosphatase 1 (ENTPD3/CD39L3) (2.5 μL of 20 ng/μL solution). A well containing all components except for the enzyme served as a blank control. The reactions were initiated by adding the substrates and phosphatase to the enzyme and terminated by the addition of 30 μL of Malachite reagent A and 100 μL of water to each well. The color was developed by the addition of 30 μL of Malachite reagent B to each well followed by gentle mixing and incubation at room temperature for 20 min. Following color development, the plate was read at 620 nm with a multi-well plate reader. A phosphate standard curve was also performed to determine the conversion factor between the absorbance and the inorganic phosphate contents. Preparation of UDP-F2-GalNAz is described in Example 13.
The specific activity of the GalNAcTs described herein were compared to GalT(Y289L), an enzyme known to transfer UDP-GalNAz as previously disclosed in WO 2007/095506 and WO 2008/029281 (both Invitrogen Corporation).
A graph depicting the conversion (in pmol/min/m) plotted against the amount of enzyme is shown in FIG. 7 (for Table 1) and FIG. 8 (for Table 2). From these plots specific activities were calculated by linear regression. […]

The subject of data set [2] is GlcNAc2-Man3-GlcNAc-GlcNAc(Fuc)-substituted trastuzumab (formula 27). Put plainly: Glycosyltransfer of GalNAz to galactosidase-trimmed trastuzumab, MS analysis. The format is biochemical. The conditions noted are these: UDP-GalNAz 0.5 mM, CeGalNAcT 0.1 mg/mL, 10 mM MnCl2, pH 8.0, 16 hours, 22° C. On the procedure:
Trastuzumab (10 mg/mL) in 50 mM sodium phosphate pH 6.0 and β(1,4)-galactosidase (3 mU/mg IgG) from Streptococcus pneumoniae (commercially available from Calbiochem) was stirred for 16 hrs at 37° C. prior to analysis by MS. A single major heavy chain product was observed corresponding to trastuzumab with a GlcNAc2-Man3-GlcNAc-GlcNAc(Fuc)-substituted heavy chain (c=d=0, 50592 Da).
A solution of 50 μg (modified) IgG, 1 M Tris-HCl pH 8.0, 1 mM EDTA and 30 mM DTT with a total volume of approximately 70 μL was incubated for 20 minutes at 37° C. to reduce the disulfide bridges allowing to analyze both light and heavy chain. If present, azide-functionalities are reduced to amines under these conditions. Reduced samples were washed trice with milliQ using an Amicon Ultra-0.5, Ultracel-10 Membrane (Millipore) and concentrated to 10 μM (modified) IgG. The reduced IgG was analyzed by electrospray ionization time-of-flight (ESI-TOF) on a JEOL AccuTOF. Deconvoluted spectra were obtained using Magtran software.
Trastuzumab obtained after trimming with galactosidase (as in Formula 27, preparation described in Example 24) was subjected to the glycosyltransfer protocol with UDP-GalNAz and GalNAcT.

For “CeGalNAcT: truncated Caenorhabditis elegans β-(1,4)-GalNAcT, amino acids 30-383 of SEQ ID NO: 2 (SEQ ID NO: 6)”, the “Data from the determination of the specific activity” value (shortened to “Data from the determination”) amounted to 0.031 in data set [1] (0.01 μg enzyme); 0.066 in data set [1] (0.02 μg enzyme); 0.14 in data set [1] (0.04 μg enzyme); 0.162 in data set [1] (0.06 μg enzyme); 0.265 in data set [1] (0.08 μg enzyme); 0.301 in data set [1] (0.1 μg enzyme). In data set [1] (0.12 μg enzyme), the “Data from the determination” value is 0.348. Also, the specific activity in data set [1] is 426 pmol/min/µg. Moreover, the “activity for transfer of an azido-GalNAc derivative, times higher than GalT(Y289L)” value in data set [1] (relative to GalT(Y289L), FIG. 7) is recorded as 10 times. Further, the “transferase activity compared with GalT(Y289L)” value in data set [1] is “significantly higher”. Moreover, in data set [2], the “conversion into (GalNAz-GlcNAc)2-Man3-GlcNAc-GlcNAc(Fuc)-substituted trastuzumab” value is recorded as “complete conversion”. Besides, the “major heavy chain product ((GalNAz-GlcNAc)2-Man3-GlcNAc-GlcNAc(Fuc)-substituted)” value in data set [2] is given as ~90 % of the total heavy chain products.

B1: TnGalNAcT: truncated Trichoplusia ni β-(1,4)-GalNAcT, amino acids 33-421 of SEQ ID NO: 4 (SEQ ID NO: 8) (protein)
chain: SPLRTYLYTPLYNATQPTLRNVERLAANWPKKIPSNYIEDSEEYSIKNISLSNHTTRASVVHPPSSITETASKLDKNMTIQDGAFAMISPTPLLITKLMDSIKSYVTTEDGVKKAEAVVTLPLCDSMPPDLGPITLNKTELELEWVEKKFPEVEWGGRYSPPNCTARHRVAIIVPYRDRQQHLAIFLNHMHPFLMKQQIEYGIFIVEQEGNKDFNRAKLMNVGFVESQKLVAEGWQCFVFHDIDLLPLDTRNLYSCPRQPRHMSASIDKLHFKLPYEDIFGGVSAMTLEQFTRVNGFSNKYWGWGGEDDDMSYRLKKINYHIARYKMSIARYAMLDHKKSTPNPKRYQLLSQTSKTFQKDGLSTLEYELVQVVQYHLYTHILVNIDERS
modifications: TnGalNAcT(33-421)
For the molecule B1, the “Data from the determination” value in data set [1] (0.01 μg enzyme) is reported as 0; in data set [1] (0.02 μg enzyme) it was 0.007; in data set [1] (0.04 μg enzyme), 0.025; in data set [1] (0.06 μg enzyme), 0.051; in data set [1] (0.08 μg enzyme) it was 0.073; in data set [1] (0.1 μg enzyme), 0.083. The “Data from the determination” value in data set [1] (0.12 μg enzyme) was found to be 0.102. The specific activity in data set [1] is 140 pmol/min/µg. Also, the “transferase activity compared with GalT(Y289L)” value in data set [1] is listed as “significantly higher”.
